B1: KGC-HDAC4c (C-terminal portion of Kusabira Green protein fused with HDAC4c), wild type [human] / KGN-SRD3c (N-terminal portion of Kusabira Green protein fused with SRD3c) [human] (parent complex)
chain 1: PRFTTGLVYDTLMLKHQCTCGSSSSHPEHAGRIQSIWSRLQETGLRGKCECIRGRKATLEELQTVHSEAHTLLYGTNPLNRQKLDSKKLLGSLASVFVRLPCGGVGVDSDTIWNEVHSAGAARLAVGCVVELVFKVATGELKNGFAVVRPPGHHAEESTPMGFCYFNSVAVAAKLLQQRLSVSKILIVDWDVHHGNGTQQAFYSDPSVLYMSLHRYDDGNFFPGSGAPDEVGTGPGVGFNVNMAFTGGLDPPMGDAEYLAAFRTVVMPIASEFAPDVVLVSSGFDAVEGHPTPLGGYNLSARCFGYLTKQLMGLAGGRIVLALEGGHDLTAICDASEACVSALLGNELDPLPEKVLQQRPNANAVRSMEKVMEIHSKYWRCLQRTTSTAGRSLIEAQTCENEEAET
chain 2: EGGMSVTQCSKEDGRSSSGPPHETAAPKRTYDMMEGRVGRAISSASIEGLMGRAIPPERHSPHHLKEQHHIRGSITQGIPRSYVEAQEDYLRREAKLLKREGTPPPPPPSRDLTEAYKTQALGPLKLKPAHEGLVATVKEAGRSIHEIPREELRHTPELPLAPRPLKEGSITQGTPLKYDTGASTTGSKKHDVRSLIGSPGRTFPPVHPLDVMADARALERACY
B2: KGC-HDAC5c (C-terminal portion of Kusabira Green protein fused with HDAC5c), wild type [human] / KGN-SRD3c (N-terminal portion of Kusabira Green protein fused with SRD3c) [human] (parent complex)
chain 1: LFTTGVVYDTFMLKHQCMCGNTHVHPEHAGRIQSIWSRLQETGLLSKCERIRGRKATLDEIQTVHSEYHTLLYGTSPLNRQKLDSKKLLGPISQKMYAVLPCGGIGVDSDTVWNEMHSSSAVRMAVGCLLELAFKVAAGELKNGFAIIRPPGHHAEESTAMGFCFFNSVAITAKLLQQKLNVGKVLIVDWDIHHGNGTQQAFYNDPSVLYISLHRYDNGNFFPGSGAPEEVGGGPGVGYNVNVAWTGGVDPPIGDVEYLTAFRTVVMPIAHEFSPDVVLVSAGFDAVEGHLSPLGGYSVTARCFGHLTRQLMTLAGGRVVLALEGGHDLTAICDASEACVSALLSVELQPLDEAVLQQKPNINAVATLEKVIEIQSKHWSCVQKFAAGLGRSLREAQAGETEEAETVS
chain 2: B1 chain 2

Variants of: B1
Assay: BiFC assay (fluorescence spectrophotometer); HEK293 cells; KGN-SRD3c (1 μg) and KGC-HDAC4c mutant (1 μg); 48 hours of transfection; whole cell lysates; parent: 8; read off a plot

**Q.** chain 1 PRFTTGLVYDTLMLKHQCTCGSSSSHPEHAGRIQSIWSRLQETGLRGKCECIRGRKATLEELQTVHSEAHTLLYGTNPLNRQKLDSKKLLGSLASVFVRLPCGGVGVDSDTIWNEVHSAGAARLAVGCVVELVFKVATGELKNGFAVVRPPGHYAEESTPMGFCYFNSVAVAAKLLQQRLSVSKILIVDWDVHHGNGTQQAFYSDPSVLYMSLHRYDDGNFFPGSGAPDEVGTGPGVGFNVNMAFTGGLDPPMGDAEYLAAFRTVVMPIASEFAPDVVLVSSGFDAVEGHPTPLGGYNLSARCFGYLTKQLMGLAGGRIVLALEGGHDLTAICDASEACVSALLGNELDPLPEKVLQQRPNANAVRSMEKVMEIHSKYWRCLQRTTSTAGRSLIEAQTCENEEAET [chain 1 H154Y] was tested. Which response did it give?
**A.** The response was roughly 4.3 RFU.

**Q.** With chain 1 PRFTTGLVYDTLMLKHQCTCGSSSSHPEHAGRIQSIWSRLQETGLRGKCECIRGRKATLEELQTVHSEAHTLLYGTNPLNRQKLDSKKLLGSLASVFVRLPCGGVGVDSDTIWNEVHSAGAARLAVGCVVELVFKVATGELKNGFAVVRPPGHHAEESTPMGFCYFNSVAVAAKLLQQRLSVSKILIVDWDVHHGNGTQQAFYSDPSVLYMSLHRYDDGNFLPGSGAPDEVGTGPGVGFNVNMAFTGGLDPPMGDAEYLAAFRTVVMPIASEFAPDVVLVSSGFDAVEGHPTPLGGYNLSARCFGYLTKQLMGLAGGRIVLALEGGHDLTAICDASEACVSALLGNELDPLPEKVLQQRPNANAVRSMEKVMEIHSKYWRCLQRTTSTAGRSLIEAQTCENEEAET [chain 1 F222L] as the variant, how does the response read?
**A.** The response was roughly 4.1 RFU.

**Q.** With chain 1 PRFTTGLVYDTLMLKHQCTCGSSSSHPEHAGRIQSIWSRLQETGLRGKCECIRGRKATLEELQTVHSEAHTLLYGTNPLNRQKLDSKKLLGSLASVFVRLPCGGVGVDSDPIWNEVHSAGAARLAVGCVVELVFKVATGELKNGFAVVRPPGHHAEESTPMGFCYFNSVAVAAKLLQQRLSVSKILIVDWDVHHGNGTQQAFYSDPSVLYMSLHRYDDGNFFPGSGAPDEVGTGPGVGFNVNMAFTGGLDPPMGDAEYLAAFRTVVMPIASEFAPDVVLVSSGFDAVEGHPTPLGGYNLSARCFGYLTKQLMGLAGGRIVLALEGGHDLTAICDASEACVSALLGNELDPLPEKVLQQRPNANAVRSMEKVMEIHSKYWRCLQRTTSTAGRSLIEAQTCENEEAET [chain 1 T111P] as the variant, how does the response read?
**A.** Its response is roughly 4.2 RFU.

Variants of: B2
Assay: BiFC assay (fluorescence spectrophotometer); HEK293 cells; KGN-SRD3c (1 μg) and KGC-HDAC5c mutant (1 μg); 48 hours of transfection; whole cell lysates; parent: 9.3; read off a plot

**Q.** Which response does the source give for chain 1 LFTTGVVYDTFMLKHQCMCGNTHVHPEHAGRIQSIWSRLQETGLLSKCERIRGRKATLDEIQTVHSEYHTLLYGTSPLNRQKLDSKKLLGPISQKMYAVLPCGGIGVDSDTVWNEMHSSSAVRMAVGCLLELAFKVAAGELKNGFAIIRPPGHHAEESTAMGFRFFNSVAITAKLLQQKLNVGKVLIVDWDIHHGNGTQQAFYNDPSVLYISLHRYDNGNFFPGSGAPEEVGGGPGVGYNVNVAWTGGVDPPIGDVEYLTAFRTVVMPIAHEFSPDVVLVSAGFDAVEGHLSPLGGYSVTARCFGHLTRQLMTLAGGRVVLALEGGHDLTAICDASEACVSALLSVELQPLDEAVLQQKPNINAVATLEKVIEIQSKHWSCVQKFAAGLGRSLREAQAGETEEAETVS [chain 1 C164R] here?
**A.** The response was roughly 4.4 RFU.

**Q.** For chain 1 LFTTGVVYDTFMLKHQCMCGNTHVHPEHAGRIQSIWSRLQETGLLSKCERIRGRKATLDEIQTVHSEYHTLLYGTSPLNRQKLDSKKLLGPISQKMYAVLPCGGIGVDSDTVWNEMHSSSAVRMAVGCLLELAFKVAAGELKNGFAIIRPPGHHAEESTAMGFCFFNSVAITAKLLQQKLNVGKVLIVDWDIHHGNDTQQAFYNDPSVLYISLHRYDNGNFFPGSGAPEEVGGGPGVGYNVNVAWTGGVDPPIGDVEYLTAFRTVVMPIAHEFSPDVVLVSAGFDAVEGHLSPLGGYSVTARCFGHLTRQLMTLAGGRVVLALEGGHDLTAICDASEACVSALLSVELQPLDEAVLQQKPNINAVATLEKVIEIQSKHWSCVQKFAAGLGRSLREAQAGETEEAETVS [chain 1 G197D], which response is on record?
**A.** The response was roughly 4 RFU.

**Q.** How did the response turn out when chain 1 LFTTGVVYDTFMLKHQCMCGNTHVHPEHAGRIQSIWSRLQETGLLSKCERIRGRKATLDEIQTVHSEYHTLLYGTSPLNRQKLDSKKLLGPISQKMYAVLPCGGIGVDSDTVWNEMHSSSAVRMAVGCLLELAFKVAAGELKNGFAIIRPPGHHAEESTAMGFCFFNSVAITAKLLQQKLNVGKVLIVDWDIHHCNGTQQAFYNDPSVLYISLHRYDNGNFFPGSGAPEEVGGGPGVGYNVNVAWTGGVDPPIGDVEYLTAFRTVVMPIAHEFSPDVVLVSAGFDAVEGHLSPLGGYSVTARCFGHLTRQLMTLAGGRVVLALEGGHDLTAICDASEACVSALLSVELQPLDEAVLQQKPNINAVATLEKVIEIQSKHWSCVQKFAAGLGRSLREAQAGETEEAETVS [chain 1 G195C] was run?
**A.** Its response is roughly 3.9 RFU.

**Q.** Which response does the source give for chain 1 LFTTGVVYDTFMLKHQCMCGNTHVHPEHAGRIQSIWSRLQETGLLSKCERIRGRKATLDEIQTVHSEYHTLLYGTSPLNRQKLDSKKLLGPISQKMYAVLPCGGIGVDSDTVWNEMHSSSAVRMAVGCLLELAFKVAAGELKNGFAIIRPPGHHAEESTAMGFCFFNSVAITAKLLQQKLNVGKVLIVDWDIHHGDGTQQAFYNDPSVLYISLHRYDNGNFFPGSGAPEEVGGGPGVGYNVNVAWTGGVDPPIGDVEYLTAFRTVVMPIAHEFSPDVVLVSAGFDAVEGHLSPLGGYSVTARCFGHLTRQLMTLAGGRVVLALEGGHDLTAICDASEACVSALLSVELQPLDEAVLQQKPNINAVATLEKVIEIQSKHWSCVQKFAAGLGRSLREAQAGETEEAETVS [chain 1 N196D] here?
**A.** Its response is roughly 3.7 RFU.

Source: article PMC4498904, “Mutagenesis Study Reveals the Rim of Catalytic Entry Site of HDAC4 and -5 as the Major Binding Surface of SMRT Corepressor” (PLoS ONE, 2015)
